Legend:
[1] = test system: ACTIVASE recombinant human tissue-type plasminogen activator (r-tPA)
[2] = test system: CHO plasminogen activator
[3] = test system: TNK-tPA
Chain of TNK-tPA (chain, as listed by the source): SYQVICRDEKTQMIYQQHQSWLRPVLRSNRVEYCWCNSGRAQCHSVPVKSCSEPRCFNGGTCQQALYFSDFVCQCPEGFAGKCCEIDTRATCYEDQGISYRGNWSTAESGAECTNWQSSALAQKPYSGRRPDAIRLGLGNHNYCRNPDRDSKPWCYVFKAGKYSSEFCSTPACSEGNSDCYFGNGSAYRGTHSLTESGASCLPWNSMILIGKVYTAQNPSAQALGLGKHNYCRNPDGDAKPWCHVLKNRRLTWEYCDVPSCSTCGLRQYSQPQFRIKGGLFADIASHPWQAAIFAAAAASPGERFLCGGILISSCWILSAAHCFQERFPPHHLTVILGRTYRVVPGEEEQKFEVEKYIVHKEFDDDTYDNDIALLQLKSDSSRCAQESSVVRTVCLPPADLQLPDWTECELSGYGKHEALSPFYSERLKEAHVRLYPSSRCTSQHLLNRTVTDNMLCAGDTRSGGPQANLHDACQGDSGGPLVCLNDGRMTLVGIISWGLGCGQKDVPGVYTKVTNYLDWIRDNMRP

Chain of ACTIVASE recombinant human tissue-type plasminogen activator (r-tPA) (chain, as listed by the source): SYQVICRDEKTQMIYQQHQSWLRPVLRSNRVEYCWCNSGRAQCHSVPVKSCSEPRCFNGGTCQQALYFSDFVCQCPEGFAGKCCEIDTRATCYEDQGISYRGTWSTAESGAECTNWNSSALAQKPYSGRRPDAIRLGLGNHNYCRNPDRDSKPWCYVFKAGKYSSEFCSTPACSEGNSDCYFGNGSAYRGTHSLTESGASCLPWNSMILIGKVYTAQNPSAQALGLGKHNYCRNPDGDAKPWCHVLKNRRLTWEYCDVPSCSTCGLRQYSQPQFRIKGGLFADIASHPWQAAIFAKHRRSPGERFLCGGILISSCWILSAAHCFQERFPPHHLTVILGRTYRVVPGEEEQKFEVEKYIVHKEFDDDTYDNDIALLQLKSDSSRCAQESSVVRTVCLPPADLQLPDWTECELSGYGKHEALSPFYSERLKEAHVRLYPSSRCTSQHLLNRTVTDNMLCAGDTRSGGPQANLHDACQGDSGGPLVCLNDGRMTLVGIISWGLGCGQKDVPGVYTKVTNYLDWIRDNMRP
Chain of CHO plasminogen activator (chain, as listed by the source): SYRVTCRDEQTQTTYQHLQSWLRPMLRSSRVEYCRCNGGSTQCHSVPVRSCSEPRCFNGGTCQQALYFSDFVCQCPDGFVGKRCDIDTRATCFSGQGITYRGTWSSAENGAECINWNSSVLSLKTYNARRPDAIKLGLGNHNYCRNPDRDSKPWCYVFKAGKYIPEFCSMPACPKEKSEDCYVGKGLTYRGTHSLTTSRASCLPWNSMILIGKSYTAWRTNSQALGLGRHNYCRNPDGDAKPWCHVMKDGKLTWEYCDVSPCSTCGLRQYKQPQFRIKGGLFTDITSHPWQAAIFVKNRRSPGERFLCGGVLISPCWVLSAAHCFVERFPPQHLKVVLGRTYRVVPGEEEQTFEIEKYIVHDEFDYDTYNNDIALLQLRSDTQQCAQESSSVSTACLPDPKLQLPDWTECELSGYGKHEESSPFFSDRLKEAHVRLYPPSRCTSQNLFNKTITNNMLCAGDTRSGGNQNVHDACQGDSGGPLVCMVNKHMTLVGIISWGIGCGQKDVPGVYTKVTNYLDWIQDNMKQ

In the case of Plasminogen, the “conversion of single-chain form to two-chain form (reversed-phase HPLC after plasmin and DTT/urea treatment)” value [1] is reported as “incubation with plasminogen converts the single-chain form of the three plasminogen activators to the two-chain form”, the “conversion of single-chain form to two-chain form (reversed-phase HPLC after plasmin and DTT/urea treatment)” value [2] is reported as “incubation with plasminogen converts the single-chain form of the three plasminogen activators to the two-chain form” and the “conversion of single-chain form to two-chain form (reversed-phase HPLC after plasmin and DTT/urea treatment)” value [3] is reported as “incubation with plasminogen converts the single-chain form of the three plasminogen activators to the two-chain form”.

From patent US20030199016
